Our source for the Ratio to Standard and IC50 values is patent US7612044.

The first assay deals with T1, HLA-A2.1 (heavy chain with human beta 2-microglobulin) (human). The assay is described as follows: IC50 of standard HBc18-27 peptide ([…] nM) / IC50 of sample peptide, same competition assay.
For YMNGTMSQV (modifications not checked) [tyrosinase peptide T9369], the Ratio to Standard was 0.13. Regarding LLDGTATLRL (modifications not checked) [gp100 peptide G10-4], the Ratio to Standard worked out at 0.01. On to VLYRYGSFSV (modifications not checked) [gp100 peptide G10-5], for which the Ratio to Standard worked out at 0.38.

Another assay addresses T1, HLA-A2.1 (heavy chain with human beta …). The assay is described as follows: competition with radiolabeled HBc18-27 for soluble HLA-A2.1 + b2m, gel filtration. Background: In gel filtration, larger molecules generally elute earlier.
The term IC50 denotes the point on the concentration scale where inhibition reaches its midpoint. As to YMNGTMSQV (modifications not checked) [tyrosinase peptide T9369], the IC50 was found to be 40 nM.

Take LLDGTATLRL (modifications not checked) [gp100 peptide G10-4]: the IC50 is 483 nM. As to VLYRYGSFSV (modifications not checked) [gp100 peptide G10-5], the IC50 stood at 13 nM.

A further assay shares this target. The assay is described as follows: competition with 5 nM radiolabeled HBc18-27 for HLA-A2.1 + b2m, gel filtration.
For the molecule YTWGQYWQV (modifications not checked) [G9-154-1Y], the IC50 is 2.5 nM. On the same count and under the same terms, the value for KTYGQYWQV (modifications not checked) [G9-154-3Y] was 30 nM.

Take ILSQVPFSV (modifications not checked) [G9-209-2L3S]: the IC50 stood at 20 nM. With WLWGQYWQV (modifications not checked) [G9-154-1W2L], the IC50 worked out at 2.8 nM. Same read-out and setting: next, ILYQVPFSV (modifications not checked) [G9-209-2L3Y]: 5 nM; FTWGQYWQV (modifications not checked) [G9-154-1F]: 1.6 nM. On to KLWGQYWQV (modifications not checked) [G9-154-2L], for which the IC50 stood at 2 nM. In the case of KMWGQYWQV (modifications not checked) [G9-154-2M], the IC50 was 6.5 nM. Consider LTWGQYWQV (modifications not checked) [G9-154-1L], for which the IC50 was 3.4 nM. As to FLWGQYWQV (modifications not checked) [G9-154-1F2L], the IC50 stood at 2.6 nM. As to ITMQVPFSV (modifications not checked) [G9-209-3M], the IC50 came to 40 nM. Consider ATWGQYWQV (modifications not checked) [G9-154-1A], for which the IC50 was 5.2 nM.

Regarding YLWGQYWQV (modifications not checked) [G9-154-1Y2L], the IC50 stood at 1.7 nM. For the molecule KTFGQYWQV (modifications not checked) [G9-154-3F], the IC50 amounted to 21 nM. In the case of LLWGQYWQV (modifications not checked) [G9-154-1L2L], the IC50 amounted to 1.6 nM. Regarding KIWGQYWQV (modifications not checked) [G9-154-2I], the IC50 is 3 nM.

Turning to WTWGQYWQV (modifications not checked) [G9-154-1W], the IC50 stood at 60 nM. Same read-out and setting: next, ALWGQYWQV (modifications not checked) [G9-154-1A2L]: 2.3 nM.
